Test results taken from article PMC10710473, “The DNA glycosylase NEIL2 is protective during SARS-CoV-2 infection”.

Columns and labels:
[1] = target: T1, NEIL2 (rNEIL2) (UniProt Q969S2 1-332); test: EMSA; 1 nM RNA, compact band at 75 nM NEIL2; Kd not measurable (aggregates); details: protein: recombinant; tags: C-terminal 6xHis; chain copies: 12; label: 32P end label; folded; partly aggregates
T1 sequence: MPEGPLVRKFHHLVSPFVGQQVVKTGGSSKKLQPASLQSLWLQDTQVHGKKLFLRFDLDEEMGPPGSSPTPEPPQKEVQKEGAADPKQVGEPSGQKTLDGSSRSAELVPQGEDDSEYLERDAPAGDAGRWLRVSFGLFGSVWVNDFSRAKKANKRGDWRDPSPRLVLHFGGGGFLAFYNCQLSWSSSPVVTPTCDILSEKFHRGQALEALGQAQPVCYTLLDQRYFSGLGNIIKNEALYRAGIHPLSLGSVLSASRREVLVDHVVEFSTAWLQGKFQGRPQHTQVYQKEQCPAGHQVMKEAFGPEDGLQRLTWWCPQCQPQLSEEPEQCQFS

[2] = target: T1, NEIL2 (rNEIL2); test: EMSA; details: protein: recombinant; tags: C-terminal 6xHis; chain copies: 12; label: 32P end label; natively folded, minor misfolded band
[3] = target: T1, NEIL2 (rNEIL2); test: EMSA; 1 nM RNA, no yeast tRNA; Hill 2.428; details: protein: recombinant; tags: C-terminal 6xHis; label: 32P end label

B1: CoV-2 3'-UTR RNA (full length, 200 nt) (structured_RNA)
RNA: CAAUCUUUAAUCAGUGUGUAACAUUAGGGAGGACUUGAAAGAGCCACCACAUUUUCACCGAGGCCACGCGGAGUACGAUCGAGUGUACAGUGAACAAUGCUAGGGAGAGCUGCCUAUAUGGAAGAGCCCUAAUGUGUAAAAUUAAUUUUAGUAGUGCUAUCCCCAUGUGAUUUUAAUAGCUUCUUAGGAGAAUGACAAAA
binding result [1]: binds

B2: CoV-2 5'-UTR RNA (full length, 297 nt) (structured_RNA)
RNA: AUUAAAGGUUUAUACCUUCCCAGGUAACAAACCAACCAACUUUCGAUCUCUUGUAGAUCUGUUCUCUAAACGAACUUUAAAAUCUGUGUGGCUGUCACUCGGCUGCAUGCUUAGUGCACUCACGCAGUAUAAUUAAUAACUAAUUACUGUCGUUGACAGGACACGAGUAACUCGUCUAUCUUCUGCAGGCUGCUUACGGUUUCGUCCGUGUUGCAGCCGAUCAUCAGCACAUCUAGGUUUUGUCCGGGUGUGACCGAAAGGUAAGAUGGAGAGCCUUGUCCCUGGUUUCAACGAGAA
Kd [2]: 0.0442 µM

UCCCCAUGUGAUUUUAAUAGCUUCUUAGGAGAAUGACA (mixed, DNA bases may be present) [CoV-2 3'-UTR ZnF-site (38-mer)]
Kd [3]: 0.0772 µM
